Measured values from US20060052286A1, “Factor VII conjugates for selectively treating neovascularization disorders” (Yale University, priority 2004, published 2006).

Legend:
[1] = system: choroidal neovascularization (CNV) lesions; experiment: Targeted photodynamic therapy of laser-induced CNV lesions in rats (fluorescein angiography); type: in vivo, Norway-Brown rats
Procedure: CNV lesions were induced by laser photocoagulation of the retina in both eyes of Norway-Brown rats. Group 1: one eye received an intravitreal injection of 10 ul verteporfin conjugated to targeting molecule, and the other eye was used as a control. One hour later some of the lesions were treated with 690 nm laser light, while the other lesions were not irradiated. Group 2: one eye received iv. injection of 0.5 to 1 mg/m^2 verteporfin conjugated with targeting molecule. 15, 30 or 60 minutes later some of the lesions were treated with 690 nm laser light, while the other lesions were not irradiated. The lesions were examined by fluorescein angiography 1, 7 and 14 days later to assess the efficacy of targeted photodynamic therapy. In the case of intravitreal treatment with the same dosage, the effects of targeted photodynamic therapy lasted at least seven days. While there is no effect of PDT in the case of intravitreal injection of free verteporfin, the effects of targeted photodynamic therapy last even longer than 14 days, and the dosage of verteporfin in targeted photodynamic therapy is only 16% as compared to regular PDT verteporfin.
CNV lesions were induced by laser photocoagulation of the retina in both eyes of Norway-Brown rats. Choroidal neovascularization was induced by photocoagulating the posterior pole of rats with argon green laser using a slit lamp and a fundus contact lens to deliver 200-700 mW power for 0.1 second to a 50 μm spot. The power was adjusted to produce a blister or small hemorrhage. If no bleeding was observed, an additional laser-induced lesion was produced next to the first spot. Neovascular membranes usually develop within 2 weeks.
After 4 weeks, FVII-verteporfin conjugate (fVIIPD) at doses of 0.5 or 1 mg/m^2 was injected intravenously into the tail vein of the rats. Some of the CNV lesions were irradiated with 689 nm laser for 83 seconds at 15, 30 or 60 minutes after intravenous injection, while the other lesions were not irradiated (no light controls). Control rats were intravenously injected with Verteporfin (6.0 mg/m2) and laser irradiation was done 15 minutes later. The lesions were examined by fundus photographs and fluorescein angiography 1, 7 and 14 days later to assess the efficacy of ITPT. Choroidal veovascular membranes were treated by intravitreal injection of Verteporfin attached to targeting molecules that bind selectively to the endothelial cells of pathologic vessels. The photosensitizer was activated with an opal laser. A similar experiment was performed by intravitreal injection of fVII-targeted verteporfin.

[2] = molecular target: T1, Tissue Factor on the tumor cells (human breast cancer cells) (Homo sapiens, UniProt P13726); experiment: Binding to human breast cancer cells expressing TF by flow cytometry; conditions: conjugated compared with non-conjugated molecule
T1 construct: Human Tumor Cells Expressing TF; endogenous in cells
T1 sequence (P13726 33-295): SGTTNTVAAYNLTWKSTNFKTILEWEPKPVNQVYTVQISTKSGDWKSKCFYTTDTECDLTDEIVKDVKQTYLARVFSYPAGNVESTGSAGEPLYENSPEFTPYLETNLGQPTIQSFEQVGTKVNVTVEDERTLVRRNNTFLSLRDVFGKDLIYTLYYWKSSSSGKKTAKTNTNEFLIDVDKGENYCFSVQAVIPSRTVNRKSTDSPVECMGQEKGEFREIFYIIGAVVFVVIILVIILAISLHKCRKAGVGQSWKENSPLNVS
Procedure: mfVIIP was conjugated to verteporfin using the procedure described above. The binding activity of the conjugate to human breast cancer cells was tested by flow cytometry

Row | binding activity to human breast cancer cells [2] | Molecule | effect of PDT ([1]; intravitreal injection, same dosage) | blood vessel leakage ([1]; intravitreal injection followed by laser activation, at 7 days) | duration of effects of targeted photodynamic therapy ([1]; intravitreal treatment, 690 nm laser light) | duration of effects of targeted photodynamic therapy ([1]; route not stated in the sentence (apparently iv 0.5 to 1 mg/m^2), verteporfin dosage only 16% of regular PDT)
1 | – | verteporfin [reference compound] | no effect | – | – | –
2 | identical | mfVIIPD: verteporfin conjugated via EDC to mfVIIP protein (mouse factor VII with K341A mutation) (conjugate, UniProt P70375 1-446, looked up, variant K341A, verteporfin conjugate; S-peptide and His6 tags) MVPQAHGLLLLCFLLQLQGPLGTAVFITQEEAHGVLHRQRRANSLLEELWPGSLERECNEEQCSFEEAREIFKSPERTKQFWIVYSDGDQCASNPCQNGGTCQDHLKSYVCFCLLDFEGRNCEKSKNEQLICANENGDCDQYCRDHVGTKRTCSCHEDYTLQPDEVSCKPKVEYPCGRIPVVEKRNSSSRQGRIVGGNVCPKGECPWQAVLKINGLLLCGAVLLDARWIVTAAHCFDNIRYWGNITVVMGEHDFSEKDGDEQVRRVTQVIMPDKYIRGKINHDIALLRLHRPVTFTDYVVPLCLPEKSFSENTLARIRFSRVSGWGQLLDRGATALELMSIEVPRLMTQDCLEHAKHSSNTPKITENMFCAGYMDGTKDACAGDSGGPHATHYHGTWYLTGVVSWGEGCAAIGHIGVYTRVSQYIDWLVRHMDSKLQVGVFRLPLL | – | completely stopped blood vessel leakage | at least seven | > 14 days
3 | identical | mfVIIP: mouse factor VII with K341A mutation, ribonuclease S-peptide and 6 Histidines, produced in CHO cells (protein, UniProt P70375 1-446, looked up, variant K341A, S-peptide and His6 tags, mouse factor VII with K341A mutation, ribonuclease S-peptide and 6 Histidines, produced in CHO cells) MVPQAHGLLLLCFLLQLQGPLGTAVFITQEEAHGVLHRQRRANSLLEELWPGSLERECNEEQCSFEEAREIFKSPERTKQFWIVYSDGDQCASNPCQNGGTCQDHLKSYVCFCLLDFEGRNCEKSKNEQLICANENGDCDQYCRDHVGTKRTCSCHEDYTLQPDEVSCKPKVEYPCGRIPVVEKRNSSSRQGRIVGGNVCPKGECPWQAVLKINGLLLCGAVLLDARWIVTAAHCFDNIRYWGNITVVMGEHDFSEKDGDEQVRRVTQVIMPDKYIRGKINHDIALLRLHRPVTFTDYVVPLCLPEKSFSENTLARIRFSRVSGWGQLLDRGATALELMSIEVPRLMTQDCLEHAKHSSNTPKITENMFCAGYMDGTKDACAGDSGGPHATHYHGTWYLTGVVSWGEGCAAIGHIGVYTRVSQYIDWLVRHMDSKLQVGVFRLPLL | – | – | – | –
